The target in the assay is T1, recombinant human CD3 Epsilon protein (KACTUS) (human, UniProt P07766 23-126).
T1 construct: Bought protein
Description: ELISA, plate coated with 1 ug/ml recombinant human CD3 epsilon. (ELISA stands for enzyme-linked immunosorbent assay.)

We go through one molecule from patent EP4578875A1 (Ying Mai de Medical Technology (Guangdong) Co., Ltd., dated 2025).

T1 sequence (P07766 23-126): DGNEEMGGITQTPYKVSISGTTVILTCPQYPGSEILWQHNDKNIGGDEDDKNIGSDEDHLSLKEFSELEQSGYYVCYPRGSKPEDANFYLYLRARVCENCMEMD

B1: anti-Her2/anti-CD3 bispecific antibody comprising the anti-CD3 antibody mutant (mutation site VH-Y61C) (bispecific antibody)
VH: EVQLVESGGGLVQPGGSLRLSCAASGFTFSTYAMNWVRQAPGKGLEWVGRIRSKYNNYATCYADSVKDRFTISRDDSKNSLYLQMNSLKTEDTAVYYCARHGNFGNSYVSWFAYWGQGTLVTVSS
VL: QTVVTQEPSLTVSPGGTVTLTCRSSTGAVTTSNYANWVQQKPGQAPRGLIGGTNKRAPGVPARFSGSLLGDKAALTLLGAQPEDEAEYFCALWYSNLWVFGGGTKLTVL
scFv: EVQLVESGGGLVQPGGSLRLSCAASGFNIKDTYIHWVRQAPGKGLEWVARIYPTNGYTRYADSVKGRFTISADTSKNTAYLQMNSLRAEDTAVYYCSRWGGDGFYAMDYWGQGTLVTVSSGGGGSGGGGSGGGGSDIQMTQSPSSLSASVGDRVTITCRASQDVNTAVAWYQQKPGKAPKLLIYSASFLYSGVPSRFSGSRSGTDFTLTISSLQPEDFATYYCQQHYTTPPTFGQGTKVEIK
notes: also called CD3-Her2 Mutation; CD3-HER2 Mutation
Regarding B1, the binding result is “binds”.
